{"source": "patent US20220332804A1", "about": "(CSL INNOVATION, published 2022)", "test_in_all_cases": "SPR; KD relative to WT C2;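 also: biacore SPR at 37 °C, anti-C2 mAbs captured on an anti-human IgG chip, alanine or serine C2 surface mutants tested, KD from 1:1 fit compared with wild-type C2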", "key": {"human C2 K244A": {"biological_target": "T1, human C2 K244A (human, UniProt P06681 21-752)", "T1 sequence": "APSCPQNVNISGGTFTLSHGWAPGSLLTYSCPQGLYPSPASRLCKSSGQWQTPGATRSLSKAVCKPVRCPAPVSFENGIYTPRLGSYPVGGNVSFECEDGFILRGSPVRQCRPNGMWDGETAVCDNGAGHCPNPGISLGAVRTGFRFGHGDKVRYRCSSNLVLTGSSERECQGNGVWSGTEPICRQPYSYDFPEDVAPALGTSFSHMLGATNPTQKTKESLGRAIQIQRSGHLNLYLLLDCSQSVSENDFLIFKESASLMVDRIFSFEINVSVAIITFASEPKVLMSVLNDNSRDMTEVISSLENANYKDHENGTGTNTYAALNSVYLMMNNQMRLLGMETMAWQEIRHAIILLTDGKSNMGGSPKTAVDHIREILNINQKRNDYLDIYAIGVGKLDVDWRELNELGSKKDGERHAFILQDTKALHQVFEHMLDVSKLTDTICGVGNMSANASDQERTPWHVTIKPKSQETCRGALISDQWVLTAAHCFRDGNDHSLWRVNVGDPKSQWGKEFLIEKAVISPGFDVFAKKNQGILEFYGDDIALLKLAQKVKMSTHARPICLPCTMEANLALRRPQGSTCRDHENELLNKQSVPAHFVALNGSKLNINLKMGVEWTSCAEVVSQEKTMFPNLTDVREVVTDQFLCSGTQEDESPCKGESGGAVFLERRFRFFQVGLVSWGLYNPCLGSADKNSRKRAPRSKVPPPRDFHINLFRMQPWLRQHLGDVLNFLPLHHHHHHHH", "protocol": "(§1) Surface plasmon resonance (SPR, Biacore) was used for all binding affinity analyses. In brief, goat anti-human IgG was directly immobilised onto the carboxymethyl dextran surface of CM5 sensorchips to approximately 12,000 RU using standard NHS/EDC chemistry at pH 5. The immobilised antibody surface was pre-conditioned with ten injections of polyclonal human IgG (Privigen 60 s) prepared at 1 μg/mL. Ligands (anti-C2 mAbs) were captured at the beginning of each cycle as described below. An adjacent spot or flow cell in which only Polyclonal IgG was capture was used as a reference surface. The goat anti-human IgG Fc antibody surface was regenerate in 100 mM H3PO4, injected for 45 seconds at the end of each cycle. Experiments were performed at 37° C. and the flow rate of each experiment was kept constant at 30 μL/min.\n(§2) Sensogram data was double-referenced against a reference anti-IgG surface (i.e. minus anti-C2 mAb) and blank buffer injections obtained within each experiment. The binding data was fit to 1:1 (kinetic or steady-state) model using local Rmax and null refraction index (RI=0) when appropriate. Buffers and solutions were filtered (0.22 μm) prior to use.\n(§3) The C2 mutants were designed to test the importance of surface exposed residues for antibody binding. Residues located at either the N-terminal VWA domain or C-terminal protease domain of C were replaced by either alanine or serine and tested for binding against anti-C2 antibodies."}, "human C2 G432A": {"biological_target": "T2, human C2 G432A (human, UniProt P06681 21-752)", "T2 sequence": "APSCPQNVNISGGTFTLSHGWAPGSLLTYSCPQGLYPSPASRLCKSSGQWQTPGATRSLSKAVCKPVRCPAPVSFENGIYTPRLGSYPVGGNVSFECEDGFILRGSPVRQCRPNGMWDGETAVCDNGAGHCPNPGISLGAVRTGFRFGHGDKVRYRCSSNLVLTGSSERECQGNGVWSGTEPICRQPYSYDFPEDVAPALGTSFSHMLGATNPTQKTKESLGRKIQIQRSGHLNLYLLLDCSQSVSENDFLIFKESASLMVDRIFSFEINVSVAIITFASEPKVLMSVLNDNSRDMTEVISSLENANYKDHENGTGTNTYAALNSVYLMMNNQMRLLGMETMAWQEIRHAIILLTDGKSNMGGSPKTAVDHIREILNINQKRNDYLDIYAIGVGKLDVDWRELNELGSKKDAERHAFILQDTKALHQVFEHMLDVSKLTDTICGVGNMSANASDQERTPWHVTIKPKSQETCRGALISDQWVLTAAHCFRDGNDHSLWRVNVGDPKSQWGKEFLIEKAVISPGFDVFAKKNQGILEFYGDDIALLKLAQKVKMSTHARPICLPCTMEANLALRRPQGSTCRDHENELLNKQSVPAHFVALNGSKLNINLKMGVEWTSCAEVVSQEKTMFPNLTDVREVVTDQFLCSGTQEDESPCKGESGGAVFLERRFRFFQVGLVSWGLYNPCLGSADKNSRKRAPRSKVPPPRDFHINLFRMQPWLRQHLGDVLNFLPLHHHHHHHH", "protocol": "as §1, §2, §3"}, "human C2 N424A": {"biological_target": "T3, human C2 N424A (human, UniProt P06681 21-752)", "T3 sequence": "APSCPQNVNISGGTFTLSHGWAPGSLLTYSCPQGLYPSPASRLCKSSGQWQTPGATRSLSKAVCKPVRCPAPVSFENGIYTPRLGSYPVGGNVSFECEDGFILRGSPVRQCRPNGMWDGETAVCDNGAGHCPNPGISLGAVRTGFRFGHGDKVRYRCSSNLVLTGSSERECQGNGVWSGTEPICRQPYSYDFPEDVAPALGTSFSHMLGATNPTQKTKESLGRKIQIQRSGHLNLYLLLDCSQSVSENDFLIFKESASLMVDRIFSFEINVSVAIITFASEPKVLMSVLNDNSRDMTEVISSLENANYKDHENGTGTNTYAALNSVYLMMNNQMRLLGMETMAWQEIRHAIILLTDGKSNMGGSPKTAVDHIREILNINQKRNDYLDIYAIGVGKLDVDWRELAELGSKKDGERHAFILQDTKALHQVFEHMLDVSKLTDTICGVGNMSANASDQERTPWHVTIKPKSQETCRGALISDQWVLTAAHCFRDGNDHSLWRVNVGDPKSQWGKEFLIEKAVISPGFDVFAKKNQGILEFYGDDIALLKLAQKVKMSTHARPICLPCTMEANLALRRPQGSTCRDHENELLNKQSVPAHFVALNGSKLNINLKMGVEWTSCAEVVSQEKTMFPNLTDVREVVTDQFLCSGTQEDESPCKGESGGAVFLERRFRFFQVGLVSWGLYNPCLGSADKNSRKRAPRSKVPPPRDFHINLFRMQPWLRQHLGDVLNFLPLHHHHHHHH", "protocol": "as §1, §2, §3"}, "human C2 T317A": {"biological_target": "T4, human C2 T317A (human, UniProt P06681 21-752)", "T4 sequence": "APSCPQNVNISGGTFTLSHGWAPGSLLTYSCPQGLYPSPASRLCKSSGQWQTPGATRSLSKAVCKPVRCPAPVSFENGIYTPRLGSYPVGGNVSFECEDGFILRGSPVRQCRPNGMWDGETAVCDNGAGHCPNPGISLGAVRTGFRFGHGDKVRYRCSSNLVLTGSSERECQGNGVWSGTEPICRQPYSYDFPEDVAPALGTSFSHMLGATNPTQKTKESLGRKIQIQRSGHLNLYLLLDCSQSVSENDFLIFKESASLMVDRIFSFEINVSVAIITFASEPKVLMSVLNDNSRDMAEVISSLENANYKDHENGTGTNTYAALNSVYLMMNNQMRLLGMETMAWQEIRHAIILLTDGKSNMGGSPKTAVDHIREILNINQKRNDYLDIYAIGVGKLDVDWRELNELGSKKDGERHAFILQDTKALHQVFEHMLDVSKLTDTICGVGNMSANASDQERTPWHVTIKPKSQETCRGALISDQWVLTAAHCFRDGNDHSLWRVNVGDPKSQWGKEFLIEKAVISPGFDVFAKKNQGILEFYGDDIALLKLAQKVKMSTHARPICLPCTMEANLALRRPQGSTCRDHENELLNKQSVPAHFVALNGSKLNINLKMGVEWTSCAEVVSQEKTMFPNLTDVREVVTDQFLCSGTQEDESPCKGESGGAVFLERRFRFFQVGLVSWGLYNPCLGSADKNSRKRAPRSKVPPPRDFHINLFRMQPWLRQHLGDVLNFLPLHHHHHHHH", "protocol": "as §1, §2, §3"}}}
{"binder": "RF16-214 (antibody, V domains shown) VH: EVQLLESGGGLVQPGGSLRLSCAASGFTFSWYQMMWVRQAPGKGLEWVSRIYPSGGGTAYADSVKGRFTISRDNSKNTLYLQMNSLRAEDTAVYYCARDAGYGDNWGQGTLVTVSS VL: QSALTQPPSVSVSPGQTASITCSGDKLGEKYASWYQQKAGQSPVMVIYQDRKRPSGIPERFSGSNSGNTATLTISGTQAMDEADYYCQAWDTRAVVFGGGTKLTVLG", "values": [{"measurement": "Fold diff", "setting": "human C2 K244A", "result": 3, "unit": "fold"}, {"measurement": "Fold diff", "setting": "human C2 G432A", "result": 1, "unit": "fold"}, {"measurement": "Fold diff", "setting": "human C2 N424A", "result": 1, "unit": "fold"}, {"measurement": "Fold diff", "setting": "human C2 T317A", "result": 1, "unit": "fold"}]}
